From paper PMC10196373, “Conformational analysis and interaction of the Staphylococcus aureus transmembrane peptidase AgrB with its AgrD propeptide substrate” (Frontiers in Chemistry, 2023)

What was measured:
[1] = target: T1, AgrB1 with C-terminal SmBiT (agrBCS) (Staphylococcus aureus, UniProt P0C1P7 1-189); assay: split reporter (BiFC, NanoBiT); live S. aureus SH1000 cells; one tagged fusion on the chromosome (attB2), the other on a low copy plasmid, both from the agr P2 promoter; cells at OD600 1.0, Nano-Glo live cell reagent (furimazine), bioluminescence (RLU); settings: partners not purified
T1 construct: AgrB1, transmembrane peptidase of S. aureus agr group 1; agrB1 gene amplified with its upstream P2 promoter; A 16 amino acid flexible linker joins AgrB and SmBiT; also called AgrB-SmBiT; pSK-P2-agrBCS; source: S. aureus SH1000, from the agr P2 promoter, chromosomal (attB2) or on low copy plasmid pSK5630, in live cells; not shown: SmBiT (NanoBiT), C-terminal, kept
T1 sequence: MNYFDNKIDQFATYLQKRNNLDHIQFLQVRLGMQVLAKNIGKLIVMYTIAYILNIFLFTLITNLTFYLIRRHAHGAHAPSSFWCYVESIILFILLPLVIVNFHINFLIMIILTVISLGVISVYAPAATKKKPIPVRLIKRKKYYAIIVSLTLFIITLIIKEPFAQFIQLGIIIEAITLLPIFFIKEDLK

[2] = target: the molecule itself; assay: new band of the complex on Tris-glycine gel, Western blot; purified AgrB with DOPG (1 mg/mL) incubated with T7-AgrD1 (2 uM) 30 min at 37 C in 20 mM Tris-HCl pH 7.5, 5 mM MgSO4; heated to 55 C for 5 min in SDS sample buffer, 14% Tris-glycine gel without SDS; blots probed with an AgrB nanobody or an anti-T7 antibody

Binder | luminescent signal relative to the other constructs [1] | binding result [2]
MNTLFNLFFDFITGILKNIGNIAAYSTCDFIMDEVEVPKELTQLHE (AgrD1 pro-peptide of S. aureus agr group 1; PCR-amplified agrD1 put in place of agrB1 in the split luciferase plasmid; A 16 amino acid flexible linker joins AgrD and LgBiT; also called pAgrDCL; AgrD-LgBit; source: S. aureus SH1000, from the agr P2 promoter on low copy plasmid pSK5630, in live cells; not shown: LgBiT (NanoBiT), C-terminal, kept) [AgrD1 with C-terminal LgBiT (agrDCL)] | > 10 times | 
MNTLFNLFFDFITGILKNIGNIAAYSTCDFIMDEVEVPKELTQLHE (AgrD1 pro-peptide of S. aureus agr group 1; also called AgrD-T7; T7-tagged AgrD; source: synthetic peptide (solid phase synthesis), bought: CS Bio) [T7-AgrD1, AIP pro-peptide AgrD1 with a 14 residue T7 epitope leader tag] |  | binds
